Key:
[1] = target: chicken PHT1 (purified, wild type) (chicken)
[2] = target: T1, chicken PHT1 L12A/L13A (purified, deglycosylated, cryo-EM sample) (Gallus gallus (chicken), UniProt A0A8V0ZFZ8;A0A8V0Z8V0, point mutant); assay: thermal shift (nanoDSF); PHT1 alone against PHT1-Sb27 at 0.4 mg/mL in 50 mM HEPES pH 7.5, 100 mM NaCl, 0.02% DDM/0.004% CHS; settings: both partners purified
T1 construct: chicken PHT1 (SLC15A4), full length, 581 residues, with L12A and L13A; Residues 19-569 modelled in the map; also called plasma membrane mutant of PHT1; source: Expi293F GnT1-, transiently transfected, Strep-Tactin purified, treated with EndoH, gel filtration

[3] = target: T1, chicken PHT1 L12A/L13A (purified, …); assay: cryo-EM structure; PHT1 L12A/L13A with two-fold molar excess of Sb27, EndoH, gel filtration; 10 mM MOPS pH 7.0, 100 mM NaCl, 0.01% DDM/0.002% CHS; settings: both partners purified

Sequence of chicken PHT1 (purified, wild type) (chicken) (chain, as listed by the source): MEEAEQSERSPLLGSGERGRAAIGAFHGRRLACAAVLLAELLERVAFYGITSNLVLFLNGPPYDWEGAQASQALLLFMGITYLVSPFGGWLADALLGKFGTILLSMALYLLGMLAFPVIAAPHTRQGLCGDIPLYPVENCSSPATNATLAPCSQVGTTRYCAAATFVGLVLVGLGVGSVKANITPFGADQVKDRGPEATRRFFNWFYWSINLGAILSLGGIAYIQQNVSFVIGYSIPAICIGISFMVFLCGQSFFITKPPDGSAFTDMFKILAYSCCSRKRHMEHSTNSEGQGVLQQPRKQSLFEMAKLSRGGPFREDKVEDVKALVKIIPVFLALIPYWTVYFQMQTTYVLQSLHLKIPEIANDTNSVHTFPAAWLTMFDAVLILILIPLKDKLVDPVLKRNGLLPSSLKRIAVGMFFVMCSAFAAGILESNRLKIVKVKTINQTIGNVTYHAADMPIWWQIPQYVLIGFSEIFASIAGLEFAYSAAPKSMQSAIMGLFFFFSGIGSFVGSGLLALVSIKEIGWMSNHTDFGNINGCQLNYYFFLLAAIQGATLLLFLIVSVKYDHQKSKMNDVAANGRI

Binder | binding result [1] | stoichiometry N [3] | increase of the melting temperature of PHT1 [2] [degrees]
143 (VHH) VHH: QVQLVESGGGLVQAGGSLRLSCAASGFPVYSAVMYWYRQAPGKEREWVASIGSTGQHTYYADSVKGRFTISRDNAKNTVYLQMNSLKPEDTAVYYCNVKDVGEYMYWYDYWGQGTQVTVSA | binds |  | 
146 (VHH) VHH: QVQLVESGGGLVQAGGSLRLSCAASGFPVDTTNMHWYRQAPGKEREWVAAIHSSGTYTFYADSVKGRFTISRDNAKNTVYLQMNSLKPEDTAVYYCNVKDKGAHLWWYDYWGQGTQVTVSA | binds |  | 

The next lines start with results.

binding result [1] | stoichiometry N [3] | Binder | increase of the melting temperature of PHT1 [2] [degrees]
binds |  | 155 (VHH) VHH: QVQLVESGGGLVQAGGSLRLSCAAGGFPVKTSWMRWYRQAPGKEREWVAAINSTGDWTEYADSVKGRFTISRDNAKNTVYLQMNSLKPEDTAVYYCNVKDYGVQTYYYDYWGQGTQVTVSA | 
 | 2 | sybody 27 (VHH, synthetic nanobody selected from the sybody libraries; Expressed from the pSBinit plasmid; also called Sb27; Sb27a; source: E. coli MC1061 F-, periplasm, purified (Ni-NTA, gel filtration)) VHH: QVQLVESGGGSVQAGGSLRLSCAASGDIETIWYLGWFRQAPGKEREGVAALSTVTGSTYYADSVKGRFTVSLDNAKNTVYLQMNSLKPEDTALYYCAAAYTGWMAPLWQWVYSYWGQGTQVTVSA | 6
